The nature of the data set: yeast display, Sf9 membrane polyspecificity reagent, FACS + sequencing; frameworks hold sequencing errors. The gist of the method: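 A synthetic nanobody library was expressed on Saccharomyces cerevisiae BJ5465 by galactose induction for 36–48 hours. The library was stained for 1 hour at 4 °C with 10% biotinylated, detergent-solubilized Sf9 membrane reagent and enriched with streptavidin microbeads before FACS. Low and high (top ~1%) gates were set on anti-HA fluorescence for expression and streptavidin fluorescence for reagent binding, and each polyreactivity label reflects the gate of origin.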
On to “QVQLVESAGGLVQAGCSLRLSCAASGSPFGYYAMGWYRQAPGKVRELVAAISRSGVSTYYADSVKGRFTISRDNAKNTFYLQMNSLKPEDTAVYYCDRVRSTPGSYNRFYYWGQGTQVTVSS”, for which the “polyreactivity (PSR sort gate)” value is recorded as “high polyreactivity”.

Regarding “QVQLVESAGGLVQAGGSIRLSCAASGNIFFVYDMGWYRQAPGKERELVAAISWSGGSTYADSVKGRFTISRDNAKNTVYLQMNSLKPEDTAVYYWAASYGVYWYSFWYHVAWLDYWGQGTQVTVSS”, the “polyreactivity (PSR sort gate)” value is given as “low polyreactivity”.

For the sequence “QVQLVESAGGLVQAGGSLPLSCAASGRTFQTNLMGWYRQAPGKERELVAAITLSGGSTNYADSVKVRFTISRDNAKKTVYLQMNSLKPEDTAVYYCNAERRYRHQLTPHYEYDYWGKGTQVTVSS”, the “polyreactivity (PSR sort gate)” value is “low polyreactivity”.

For “QVQLVESAGGLVQAGGSLRLSCAASGFIFPTYAMGWYRQAPGKERELVAAITTGGGSTYYADSVKGRFTISRDNAKNTVYLQMNSLKPEDTAVYYCAAEYVAQAGYGEDYWGQGTQVTVSS”, the “polyreactivity (PSR sort gate)” value is on record as “low polyreactivity”.

Turning to “QVQLVESAGGLVQAGGSLRLSCAASGFIFRYNTMGWYRQAPGKERELVATINRSGGSTYYADSVKGRFTISRDNAKNTVYLQMNSLKPEDTAVYYCAAVSLQPYYIAGATWDGDYWGQGTQVTVSS”, the “polyreactivity (PSR sort gate)” value was “high polyreactivity”.

In the case of “QVQLVESAGGLVQAGGSLRLSCAASGFIFSRNAMGWYRQAPGKERELVAAISGTGGRTYYADSVKGRFTLSRDNAKNTVYLQMNSLKTEDTAVYYCAADKRIGGFGYWGQGTQVTVSS”, the “polyreactivity (PSR sort gate)” value is “high polyreactivity”.

Regarding “QVQLVESAGGLVQAGGSLRLSCAASGFTFRSNAIGWYRQAPGKQRELVAAITSRGGSTYYADSVKGRFTISRDNAKNTVYLQMNSLKPVDTAVYYCAAEGRSRKFDYWGQGTQVTVSS”, the “polyreactivity (PSR sort gate)” value is reported as “high polyreactivity”.

On to “QVQLVESAGGLVQAGGSLRLSCAASGFTFYGYAMGAYSQAPGKERELVAAITSGGSTNYADAVKGRFTISRDNAKNTVYVQLNSLKPEDTAVYHCAAVWVANTARYSDTFGYWGQGTQVTVSS”, for which the “polyreactivity (PSR sort gate)” value is “high polyreactivity”.

Take “QVQLVESAGGLVQAGGSLRLSCAASGITFNDNAMGGYRQAPGKERELVAAINSGNGTDYEDSVKGRFTISRDNAKNTVYLQMNSLKPEDTAVYYCATEGYVQGDLGYLYTRYAFYYWGQGTQVTVSS”: the “polyreactivity (PSR sort gate)” value was “low polyreactivity”.

Consider “QVQLVESAGGLVQAGGSLRLSCAASGLTQASYAMGWYRQAPGKERELVAAISRRSGRTYYADSVKGRFTISRDNAKNTVYLQMNSLKPVDTAVYYCNRGYTAQVYTEFDYWGQGTQVTVSS”, for which the “polyreactivity (PSR sort gate)” value is given as “low polyreactivity”.

In the case of “QVQLVESAGGLVQAGGSLRLSCAASGLTYYFYPMGWYRQAPGKETELVAAINYDDGSTYYADSVKGRFTISRDNAKNTVYLQMNSLKPEDTAVYYCAADRDFRTPRLYYWGQGTQVTVSS”, the “polyreactivity (PSR sort gate)” value was “low polyreactivity”.

Regarding “QVQLVESAGGLVQAGGSLRLSCAASGNIFSYYAMGWYRQAPGKERELVAAISRRGTNTYYADSVKGRFTISRDNAKNTVYLQMKSLKPEDTAVYYCARYGPYQSSYHYDYWGQGTQVTVSS”, the “polyreactivity (PSR sort gate)” value is given as “high polyreactivity”.

Regarding “QVQLVESAGGLVQAGGSLRLSCAASGNTFATYAMGWYRQAPGKERELVAAITWTGGRTRYADSVKVRFTISRDNAKNTVYLPMNSLKPEDTAVYYCAAKRYDTTYDSWGQGTQVTVSS”, the “polyreactivity (PSR sort gate)” value was “high polyreactivity”.

For “QVQLVESAGGLVQAGGSLRLSCAASGRIFSAYAMRWYRQARGKERQLVAAITWSGANTDYADSVKGRFTISRDNAKNTVYLQMTSLKPEDTAVYYCNASFGRDSAYDYWGQGTQVTVSS”, the “polyreactivity (PSR sort gate)” value was “low polyreactivity”.

“QVQLVESAGGLVQAGGSLRLSCAASGRIFSFNAMGWDRQAPGKERELVATIRTDGTTNYADSVKGRFTISRDNAKNTVYLQMNSLKPEDTAVYYCATDSGWSTYDYWGQGTQVTVSS”: the “polyreactivity (PSR sort gate)” value is “high polyreactivity”.

On to “QVQLVESAGGLVQAGGSLRLSCAASGRTFKYYAMGWYRQAPGKERELVAAISRSGGSTYADSVKGRFTISRDNAKNTVYLQMNSLKPDETAVYYCAAYSGVGYLWFDYWGQGTQVTVSS”, for which the “polyreactivity (PSR sort gate)” value is “low polyreactivity”.

Turning to “QVQLVESAGGLVQAGGSLRLSCAASGRTFVHYAIGWYRPAPAKERELVAAISWSGGSTYYADSVKGRFTISRDNAKNTGYLQMNSLKPEDTAVYYCNAGGFAPGRYGEFDYWGQGTQVTVSS”, the “polyreactivity (PSR sort gate)” value is “low polyreactivity”.

On to “QVQLVESAGGLVQAGGSLRLSCAASGSIFGLYAMGWSRQAPGKDRELVAAITSAGSTYYADSVKGRFTISRDNAKNTVYLQMNTLKPEDTAVYYCAARGFYQFPSYYYWGKGTQVTVSS”, for which the “polyreactivity (PSR sort gate)” value is reported as “high polyreactivity”.

As to “QVQLVESAGGLVQAGGSLRLSCAASGSIFHYYAMGWYRQAPGKERELVAAINSSGGSRTYYADSVKGRFTISRDKAKNTVYLQMNSLKPEDTAVYYCAADYRVVWRAYDYWGQGTQVTVSS”, the “polyreactivity (PSR sort gate)” value is “low polyreactivity”.

As for “QVQLVESAGGLVQAGGSLRLSCAASGSIFYRNVMAWYRQAPGQERELVAAITWSGGSTYYADSVKGRFTISRDNAKNTVYLQMNSLKPEDTAVYFCAAASKATYRGKVSGYYYWGQGTQVTVSS”, the “polyreactivity (PSR sort gate)” value is recorded as “high polyreactivity”.

Turning to “QVQLVESAGGLVQAGGSLRLSCAASGSNDTNAMGWYRQEPWKERELVADITSGTPTYADSVKGRFTISRDNAKNTVFLQMNSLKPEDTAVYYCAADIPPWCGDYWGQGTQVTVSS”, the “polyreactivity (PSR sort gate)” value was “low polyreactivity”.

As to “QVQLVESAGGLVQAGGSLRLSCAASGSSLGYYAMGWYRQAPGKERELVADIDNGTSTYYADSVKGRFTISRDNAKNTVYLQMNSLKQEDTAVYYCAADYYSRYLQSYYWGQGTQVTVSS”, the “polyreactivity (PSR sort gate)” value is recorded as “low polyreactivity”.

Take “QVQLVESAGGLVQAGGSLRLSCAASGSTFGANAMGWYRQAPGKEREYVAAISRSGVRTYYADSVKGRFTISRDNAKNTVYLQMNSLKPEDTAVYYCAADGYWWTYTRYDYWGQGTQVTVSS”: the “polyreactivity (PSR sort gate)” value is recorded as “low polyreactivity”.

On to “QVQLVESAGGLVQAGGSLRLSCAASGYTFKLYAMGWSRQAPGKERELVAAIRQRGGTTYYADSVKGRVTISRDNAKNTVYLQMNSLKPEDTAVYYCAVRFYLPNANGGYYYWGQGTQVTVSS”, for which the “polyreactivity (PSR sort gate)” value was “high polyreactivity”.

As to “QVQLVESAGGLVQAGGSLRLSCAPSGRTFYGNAMGWYRQAPGTERELVAAISSRGGSTYYADSVKGRFTISRDNANNTVYLQMNSLKPEDTAVYYCNVANGLSQVYRYNYWGQGTQVTVSS”, the “polyreactivity (PSR sort gate)” value is “high polyreactivity”.

For “QVQLVESAGGLVQAGGSLRLSCASSGFTFKANAMGWYRQAPGKERELVAAISRRGSSTYYADSVKGRFTISRDNAKNTVYLQMNSLKPEDTAVYYCNTKPRAGRTKLGYWGQGTQVTVSS”, the “polyreactivity (PSR sort gate)” value was “high polyreactivity”.

For “QVQLVESAGGLVQAGGSLRLSCPASGLTFGSYALGWYRQAPGKEREFVAAISWRGGSTYYADSVKGRFTISRDNAKNTVYLQMNSLKPEDTAVYYCAAPVTYGGSPYKYYYWGQGTQVTVSS”, the “polyreactivity (PSR sort gate)” value is reported as “high polyreactivity”.

For “QVQLVESAGGLVQAGGSLRLSCPASGRIFSIYGMGWYRQAPGKERELVAVISGSVGITYYADSVKGRFTISRDNAKNTVYLQMNSLKPEDTAVYFCNAKVRRRKYDYWGQGTQVTVSS”, the “polyreactivity (PSR sort gate)” value is recorded as “high polyreactivity”.

For the sequence “QVQLVESAGGLVQAGGSLRLSCPASGRTFFPYAMGWYRQPPGQEREFVAAITNTDDSTYYADSVKGRFTISRDNAKNTVYLQMNSLKPEDTAVYYCNAGDTQIRFYYWGQGSQVTVSS”, the “polyreactivity (PSR sort gate)” value was “low polyreactivity”.

As to “QVQLVESAGGLVQAGGSLRLSFAASGFTFAKYAMGWYRQAPGKERELVAGISRRGGSTYYADSVKGRFTISRDNAKNTVYLQMNSLKPEDTAVYYCNADLVRPGYYRYDYWGQGTQVTVSS”, the “polyreactivity (PSR sort gate)” value was “high polyreactivity”.

Values taken from the nanobody polyreactivity screen of Harvey et al. (2022).
